Data taken from patent US20230398228A1, “ERIBULIN-BASED ANTIBODY-DRUG CONJUGATES AND METHODS OF USE” (EISAI R&D MANAGEMENT CO., LTD., priority 2016, published 2023).

Columns and labels:
[1] = DAR analysis by LC-MS (UPLC/ESI-MS, reverse-phase LC-MS); details: reverse-phase LC-MS
Method: ADCs were deglycosylated using PNGase F (New England BioLabs). G7 buffer (10 μL) and PNGase F (2 μL) were added to the mAb (90 μL, 1 mg/mL in DPBS). The reaction was incubated in a Discover microwave (CEM) for 2 cycles: (1) microwave power 10 W, 37° C., 10 min, followed by a 5-min pause; (2) microwave power 2 W, 37° C., 10 min. A portion of the sample was reduced by adding DTT to a final concentration of 20 mM, followed by incubation at 60° C. for 3 min. Samples were then analyzed using a Waters Acquity Ultra Performance Liquid Chromatography (UPLC) and quadrupole time of flight (Q-Tof) Premier mass spectrometer. Samples (0.5-2 μg each) were injected onto a MassPrep™ micro desalting column at 65° C., eluted from the column with a 5 min equilibration in 95% of mobile phase A, a 10 min gradient (5-90% B), and a 10 min re-equilibration in 95% of mobile phase A, at 0.05 mL/min. Mobile phase A was 0.1% formic acid in water. Mobile phase B was 0.1% formic acid in acetonitrile. The Q-Tof mass spectrometer was run in positive ion, V-mode with detection in the range of 500-4000 m/z. The source parameters were as follows: capillary voltage, 2.25 kV (intact antibody)-2.50 kV (reduced antibody); sampling cone voltage, 65.0 V (intact antibody) or 50.0 V (reduced antibody); source temperature, 100° C.; desolvation temperature, 250° C.; desolvation gas flow, 550 L/hr. The protein peak was deconvoluted using the MassLynx® MaxEnt 1 function. Relative intensities of each unconjugated, singly-conjugated, and multiply-conjugated heavy and light chain masses were combined to calculate the overall DAR using the formula:
2[[ILC+1+2(ILC+2)+3(ILC+3)+ . . . n(ILC+n)]/ΣILCtot]+2[[IHC+1+2(IHC+2)+3(IHC+3)+ . . . n(IHC+n)]/ΣIHCtot]
where ILC+1 is mass intensity of light chain conjugated with one cytotoxin, ILC+2 is mass intensity of light chain conjugated with two cytotoxins, etc. IHC are the intensities from the corresponding conjugated heavy chains, and ΣILCtot and ΣIHCtot are the combined intensities of all unconjugated and conjugated light chains and heavy chains, respectively.
DAR was also analyzed using an LC-MS method with a Waters Alliance HPLC with SQD/PDA detection. Samples were injected onto a Proteomix RP-1000 column ([…], 1000A, 4.6 mm×15 cm, Sepax) at 65° C., and eluted with a 3 min equilibration in 25% B, a 27 min linear gradient from 25%-55% B, a 5 min hold at 55% B, a 1 min change to 90% B, a 5 min hold at 90% B, a 1 min change back to 25% B, and a 5 min reequilibration at 25% B. Mobile phase A was 0.1% TFA in water, and mobile phase B was 0.1% TFA in acetonitrile. The elute was then split (10:1) into PDA and SQD detectors. The SQD detector was set up as ES positive, capillary voltage at 3.2 kV, cone voltage at 40 V, extractor at 3 V, and RF lens at 0.2 V, source temperature at 150° C., and desolvation temperature at 250° C. Mass data was acquired at 200-2000 m/z for 40 min, continuum mode, scan time 1 second. Data was analyzed and deconvoluted offline using MassLynx and MaxEnt1. DAR was calculated using the formula:
2[[AUCLC+1+2(AUCLC+2)+3(AUCLC+3)+ . . . n(AUCLC+n)]/[…]]+2[[AUCHC+1+2(AUCHC+2)+3(AUCHC+3)+ . . . n(AUCHC+n)]/ΣAUCHCtot]
where AUCLC+1 is the area under the curve of the light chain peak conjugated with one cytotoxin, AUCLC+2 is the area under the curve of the light chain peak conjugated with two cytotoxins, etc. AUCHC is the area under the curve of the corresponding heavy chains, and ΣAUCLCtot and ΣAUCHCtot are the combined area under the curve of all unconjugated and conjugated light chains and heavy chains, respectively.

[2] = system: NCI-H2110 cells; experiment: Crystal Violet cytotoxicity assay (Example 4), NCI-H2110; type: cell-based, human; details: mean of replicate experiments, read-out: Cytotoxicity IC50 (nM), NCI-H2110 (FR^med, MSLN^med)
Method: Test reagents were serial diluted 1:3 in 2 mL deep-well dilution plates, starting at 200 nM (10 dilutions total). […] Medium was then discarded. […] Plates were read at 570 nm. Data was analyzed using GraphPad Prism 6.

[3] = DAR analysis by HIC-HPLC
Method: Samples were injected onto a TSKgel® Ether-5 PW, 7.5 mm ID×7.5 cm, 10 μM pore size, and eluted from the column with a 3 min equilibration in 100% of mobile phase A, a 15 min gradient (0-100% B), a 5 min hold in 100% B, a 1 min change to 100% A, and a 5 min re-equilibration in 100% of mobile phase A, at 0.7 mL/min. Mobile phase A was 25 mM sodium phosphate, 1.5 M ammonium sulfate, pH 7.0. Mobile phase B was 25 mM sodium phosphate, 25% isopropanol, pH 7.0. Detection was done at 280 nm (reference 320 nm). DAR was determined by the formula:
[AUC+1+2(AUC+2)+3(AUC+3)+ . . . n(AUC+n)]/ΣAUCtot]
where AUC+1 is the area under the curve for the mAb peak corresponding to ADC conjugated with one cytotoxin, AUC+2 is the area under the curve for the mAb peak corresponding to ADC conjugated with two cytotoxins, etc. ΣAUCtot is the combined area under the curve for all peaks.
DAR was analyzed using hydrophobic interaction HPLC (HIC-HPLC). Samples were injected onto a TSKgel® Butyl-NP5, 4.6 mm ID×3.5 cm, 2.5 μM nonporous size column (Tosoh Bioscience), and eluted with a 3 min equilibration in 100% of mobile phase A, a 15 min gradient (0-100% B), a 5 min hold in 100% B, a 1 min change to 100% A, and a 5 min re-equilibration in 100% of mobile phase A, at 0.7 mL/min. Mobile phase A was 25 mM sodium phosphate, 1.5 M ammonium sulfate, pH 7.0. […] DAR was determined by the formula: […]

| Substance | DAR (LC-MS) [1] | IC50 [2] [nM] | DAR (HIC-HPLC) [3] |
| --- | --- | --- | --- |
| MORAb009-PEG2-eribulin | 4.55 | 50 | 4.30 |
| MORAb009-PEG4-eribulin | 4.48 | 31.6 | 4.57 |
